# B1: Streptomyces coelicolor Chitinase F (Chi19F) (protein)
# chain: ASCSSYHAWSADANYNTGDIVRYTDGKAYIAEHANPGYDPLISTWYWDPYACDGGSQTPVGNFVVSEAQFNQMFPGRNSFYTYSGLTAALSAYPGFANTGSDTTKKQEAAAFLANVSHETGGLVYIVEQNTANYPHYCDWNQPYGCPAGQAAYYGRGPIQLSWNFNYKAAGDALGIDLLGNPWLVQNDAAVAWKTGLWYWNTQSGPGTMTPHNAMVNGAGFGQTIRSINGSLECDGKNPAQVQSRVTKYQQFAQILGVSPGGNLYC
# modifications: Chitinase F (Chi19F); Streptomyces coelicolor
# System: Btk resistant Diamondback moth
# Assay: Diet-surface overlay (DSO) bioassay
# Format: in vivo
# Conditions: Table 47, Btk resistant
# Outline: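 Enzyme treatments (0.1 mL) were applied over the surface of antibiotic-free artificial diet, with one first-instar larva per cell and 16 or 32 larvae per treatment. After 7 days at 27° C under a 16:8 light-dark cycle, larvae were scored as dead, larval stage, pupa or adult. Water served as the negative control and 1000 ppm Btk spores as the positive control.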
molecule,measurement,setting,value
B1,Dead Larva,"individuals of n = 32 after 7 days, mU/mL diet: SEQ 182 3.7, SEQ 185 0.6, water 1",2
same,Early Pupa,"n = 32, doses as E97, water 0",4
same,Larva Stage I,"n = 32, doses as E97, water 0",2
same,Larva Stage II,"n = 32, doses as E97, water 0",1
same,Adult,"n = 32, doses as E97, water 7",1
same,Late Pupa,"n = 32, doses as E97, water 24",22
